PMC8099778

Biological target: myosin VI (mouse (endogenous in mouse brain)) (UniProt Q64331)
Assay: co-IP

Sequence of UniProt Q64331 (Q64331 whole entry): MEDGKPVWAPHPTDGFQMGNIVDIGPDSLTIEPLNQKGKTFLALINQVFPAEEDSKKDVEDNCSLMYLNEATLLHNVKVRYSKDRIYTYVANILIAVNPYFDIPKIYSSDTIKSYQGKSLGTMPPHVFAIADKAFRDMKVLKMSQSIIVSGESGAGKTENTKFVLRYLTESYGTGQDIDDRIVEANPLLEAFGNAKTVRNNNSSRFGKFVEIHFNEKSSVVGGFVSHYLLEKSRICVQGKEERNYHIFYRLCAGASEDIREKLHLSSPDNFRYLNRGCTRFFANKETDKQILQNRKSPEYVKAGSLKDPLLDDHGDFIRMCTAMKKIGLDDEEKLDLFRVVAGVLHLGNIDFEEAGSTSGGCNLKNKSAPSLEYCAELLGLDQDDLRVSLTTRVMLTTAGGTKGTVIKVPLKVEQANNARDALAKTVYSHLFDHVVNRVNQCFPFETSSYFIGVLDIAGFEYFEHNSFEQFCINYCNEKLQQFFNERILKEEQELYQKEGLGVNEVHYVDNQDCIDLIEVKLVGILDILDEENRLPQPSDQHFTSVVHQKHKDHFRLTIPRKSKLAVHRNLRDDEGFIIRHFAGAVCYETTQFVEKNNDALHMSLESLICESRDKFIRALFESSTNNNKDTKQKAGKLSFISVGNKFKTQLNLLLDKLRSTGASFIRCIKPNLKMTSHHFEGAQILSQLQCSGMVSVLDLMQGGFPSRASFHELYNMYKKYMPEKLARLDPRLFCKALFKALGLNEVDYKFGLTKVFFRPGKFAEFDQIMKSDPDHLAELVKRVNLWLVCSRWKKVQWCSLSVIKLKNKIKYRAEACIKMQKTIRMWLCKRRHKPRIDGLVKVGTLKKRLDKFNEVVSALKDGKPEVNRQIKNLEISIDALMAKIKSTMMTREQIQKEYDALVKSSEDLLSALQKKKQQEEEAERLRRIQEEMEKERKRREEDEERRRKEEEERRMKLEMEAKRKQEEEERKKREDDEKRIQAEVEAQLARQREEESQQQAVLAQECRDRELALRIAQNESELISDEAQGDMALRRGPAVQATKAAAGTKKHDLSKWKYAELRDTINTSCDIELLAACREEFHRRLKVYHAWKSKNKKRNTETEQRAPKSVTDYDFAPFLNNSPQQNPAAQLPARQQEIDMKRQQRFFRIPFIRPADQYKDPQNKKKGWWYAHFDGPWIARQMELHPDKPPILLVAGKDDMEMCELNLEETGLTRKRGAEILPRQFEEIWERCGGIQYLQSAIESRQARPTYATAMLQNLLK

DIC coprecipitation normalized to myosin VI immunoprecipitation (wt lysate): 1.44
Substance: dynein intermediate chain (from UniProt O88485 1-628) (natural protein)
